Test results: publication doi:10.1101/2020.05.06.080622
Read-outs that look alike come from different tables or passages of the source.

Experiments:
Test in all cases: EMSA
G4P (HIS-G4P-3xFLAG) [1] = biological target: T1, G4P (HIS-G4P-3xFLAG) (artificial (RHAU-derived), UniProt Q9H2U1 53-75+=GTGSGAGTGSGAGTGSGA+53-75, internal_change)
T1 sequence: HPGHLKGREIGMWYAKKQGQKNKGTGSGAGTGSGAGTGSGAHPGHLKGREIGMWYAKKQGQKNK

G4P (HIS-G4P-3xFLAG) [2] = biological target: T1, G4P (HIS-G4P-3xFLAG); remark: listed apart in the source
G4P (HIS-G4P-3xFLAG) [3] = biological target: T1, G4P (HIS-G4P-3xFLAG); remark: listed apart in the source

GGGGCCGGGGCCGGGGCCGGGGCC (structured_DNA) [C9orf72]: binds (G4P (HIS-G4P-3xFLAG) [1]).

B1: dsCSTB (dsDNA)
DNA 1: CCTGAAGCAGACAGCTAGTGAATTCGGGGCGGGGCGCGGGGCGGGGTACTTGCGTATAACTGTTCCATAGT
DNA 2: ACTATGGAACAGTTATACGCAAGTACCCCGCCCCGCGCCCCGCCCCGAATTCACTAGCTGTCTGCTTCAGG
B1: binds (G4P (HIS-G4P-3xFLAG) [2]).

AAGGGAGGGCGGCGGGGCAGGGA (structured_DNA) [PDGFR-β]: binds (G4P (HIS-G4P-3xFLAG) [3]).
